In patent US20140087436:
Positions count from the first letter of the chain named.

Columns and labels:
Assay in all cases: EMSA
[1] = molecular target: T1, CbbR R135C R135C (Ralstonia eutropha) (UniProt P42722); settings: fold change in affinity with 400 uM PEP vs no metabolite; RuBP 0.59, ATP 1.3
T1 sequence: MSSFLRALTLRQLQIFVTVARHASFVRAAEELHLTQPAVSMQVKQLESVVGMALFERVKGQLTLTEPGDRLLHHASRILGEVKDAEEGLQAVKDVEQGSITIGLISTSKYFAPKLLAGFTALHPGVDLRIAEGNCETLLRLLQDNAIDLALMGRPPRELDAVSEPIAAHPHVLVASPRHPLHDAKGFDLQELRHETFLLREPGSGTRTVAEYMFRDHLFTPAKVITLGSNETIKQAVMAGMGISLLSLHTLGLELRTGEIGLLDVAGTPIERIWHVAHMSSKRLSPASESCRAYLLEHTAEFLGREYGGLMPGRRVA

[2] = molecular target: T2, CbbR R272Q (Ralstonia eutropha) (UniProt P42722); settings: fold change in affinity with 400 uM PEP vs no metabolite; RuBP 0.76, ATP 1.4; printed R272O in table
T2 sequence: T1 sequence with C135R, R272Q

[3] = molecular target: T3, CbbR wild type (Ralstonia eutropha) (UniProt P42722); settings: fold change in affinity with 400 uM PEP vs no metabolite; RuBP 2.3, ATP 3.2, NADPH 1.5, RU5P 0.91, FBP 0.96
T3 sequence: T1 sequence with C135R

[4] = molecular target: T4, CbbR R154H R154H (Ralstonia eutropha) (UniProt P42722); settings: fold change in affinity with 400 uM PEP vs no metabolite; RuBP 0.68, ATP 1.2
T4 sequence: T1 sequence with C135R, R154H

[5] = molecular target: T5, CbbR G98R (Ralstonia eutropha) (UniProt P42722); settings: fold change in affinity with 400 uM PEP vs no metabolite; RuBP 1.2, ATP 0.99
T5 sequence: T1 sequence with G98R, C135R

Work on cbb promoter probe, 246 bp chromosomal yielded a binding signal [1] of 0.97 fold, a binding signal [2] of 0.85 fold and a binding signal [3] of 3.8 fold. It also gave a binding signal [4] of 1.3 fold and a binding signal [5] of 2.7 fold.
